This is an account of results in patent US20230036655A1 (OTSUKA PHARMACEUTICAL, published 2023).

Residue numbers refer to the chain shown, from its start. Where only a bound is given, the exact number is not on record here.

The target in experiment [1] is T1, mutant hGDF15 8A (human, UniProt Q99988 197-308).
T1 construct: Expressed in ExpiCHO-S cells and used as culture supernatant
T1 chain: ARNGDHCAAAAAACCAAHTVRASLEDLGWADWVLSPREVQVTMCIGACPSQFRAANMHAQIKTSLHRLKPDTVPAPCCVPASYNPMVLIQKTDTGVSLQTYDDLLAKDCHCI
As to the kind of experiment: sandwich ELISA: antibody immobilised, WT or mutant hGDF15, goat polyclonal detection; N=3, mean ± SD.

The next experiment deals with T2, mutant hGDF15 R13A (human, UniProt Q99988 197-308).
T2 construct: Expressed in ExpiCHO-S cells and used as culture supernatant in the ELISA
T2 chain: T1 chain with A8P, A9L, A10G, A11P, A12G, A16R, A17L
The description is as above.

In the next experiment the target is T3, mutant hGDF15 H6A (human, UniProt Q99988 197-308).
T3 construct: Expressed in ExpiCHO-S cells and used as culture supernatant in the ELISA
T3 chain: T1 chain with H6A, A8P, A9L, A10G, A11P, A12G, A13R, A16R, A17L
The experiment is described as above.

Experiment [2] addresses T4, mutant hGDF15 6A (human, UniProt Q99988 197-308).
T4 construct: Expressed in ExpiCHO-S cells and used as culture supernatant
T4 chain: T1 chain with A8P, A9L
The description is as above.

A further experiment addresses T5, mutant hGDF15 R13A, R16A (human, UniProt Q99988 197-308).
T5 construct: Expressed in ExpiCHO-S cells and used as culture supernatant in the ELISA
T5 chain: T1 chain with A8P, A9L, A10G, A11P, A12G, A17L
The description is as above.

Another experiment concerns the target T6, mutant hGDF15 T72A (human, UniProt Q99988 197-308).
T6 construct: Expressed in ExpiCHO-S cells and used as culture supernatant in the ELISA
T6 chain: T1 chain with A8P, A9L, A10G, A11P, A12G, A13R, A16R, A17L, T72A
The experiment is described as above.

The target in experiment [3] is T7, mutant hGDF15 3A (human, UniProt Q99988 197-308).
T7 construct: Expressed in ExpiCHO-S cells and used as culture supernatant
T7 chain: T1 chain with A8P, A9L, A10G, A11P, A17L
The experiment is described as above.

Another experiment deals with T8, mutant hGDF15 R16A (human, UniProt Q99988 197-308).
T8 construct: Expressed in ExpiCHO-S cells and used as culture supernatant in the ELISA
T8 chain: T1 chain with A8P, A9L, A10G, A11P, A12G, A13R, A17L
The experiment is described as above.

The target in experiment [4] is T9, mutant hGDF15 4A (human, UniProt Q99988 197-308).
T9 construct: Expressed in ExpiCHO-S cells and used as culture supernatant
T9 chain: T1 chain with A8P, A9L, A10G, A11P
Described as above.

The target in experiment [5] is T10, human GDF15 (hGDF15), mature, wild-type (human, UniProt Q99988 197-308).
T10 construct: Bought recombinant protein: R&D Systems 957-GD-025/CF in most assays, 9279-GD in the crystal and the GDF15/GFRAL/RET assay; It was biotinylated in the GFRAL assay; also called hGDF15 (WT); rhGDF15
T10 sequence: T1 chain with A8P, A9L, A10G, A11P, A12G, A13R, A16R, A17L
As to the kind of experiment: sandwich ELISA: antibody immobilised, WT or mutant hGDF15, goat polyclonal detection; N=3, mean ± SD (reference).

In experiment [6] the target is T10, human GDF15 (hGDF15), mature, wild-type. Put plainly: competition ELISA: GFRAL immobilised, biotinylated GDF15 plus serially diluted antibody; inhibition of GDF15-GFRAL complex formation. The text has this:
First, the effect on GDF15 and GFRAL complex formation was examined (FIG. 12). GFRAL (R&D systems, 9697-GR) was immobilized on a plate, and GDF15 (R&D systems, 957-GD/CF) biotinylated with EZ-Link Micro NHS-PEG4-Bitinylation Kit (Thermo Fisher Scientific, 21955) and a serially diluted solution of an anti-GDF15 monoclonal antibody (Table 26) were reacted with the plate. Human IgG1, kappa-Isotype Control (Abcam) was used as a negative control antibody. GDF15 bound to GFRAL was detected using Pierce High Sensitivity Streptavidin-HRP (Thermo Fisher Scientific, 21130). TMB 1-Component Microwell Peroxidase Substrate, SureBlue (SeraCare Life Sciences) was used for color development, and the reaction was stopped by adding a stop solution (Wako). Absorbance was measured at 450 nm (OD450) using Emax (Molecular Devices). The % of control value was calculated according to Equation-1 from the OD450 value when each antibody was added, with the OD450 value when no antibody was added as a control. The IC50 value was obtained by calculating the inhibition rate from the % of control value thus obtained according to Equation-2 and using an Excel macro for IC50 calculation.

The target of experiment [7] is T1, mutant hGDF15 8A. Put plainly: sandwich ELISA, HuMAB2 immobilised, mutant hGDF15, goat polyclonal detection (relative value -0.1).
A further experiment addresses T11, Peptide 1 (human, cysteine pairing not given here).
T11 construct: Synthesized by GenScript
T11 peptide: H-DHCPLGPGRCCRLH-OH
Put plainly: ELISA, peptide immobilised, anti-human IgG-HRP detection. Here is the method: (§1) Peptide 1 was unmodified at both ends, and Peptide 2 was synthesized by acetylating the amino terminus and amidating the carboxyl terminus for the purpose of mimicking the natural state because this region is an internal region within hGDF15. HuMAB2 antibody (10 μg/mL) was added at 100 μL/well to a 96-well plate on which a 10 μg/mL peptide solution had been added at 100 μL/well and the peptide had been immobilized, and thereby reacted with the peptide (25° C. for 3 hours). The bound HuMAB2 antibody was detected by adding a 5000-fold diluted anti-human IgG-HRP (Jackson ImmunoResearch, 109-035-008) at 100 μL/well and reacted at 25° C. for 1 hour. A plate on which hGDF15 (R&D Systems, 957-GD-025/CF) was immobilized was used as a control plate. The detection antibody in Human GDF15 ELISA Kit (R&D Systems, DY957) (Table 9) was used as a positive control antibody that reacts with the peptide, and Human IgG1 Isotype control (Abcam, ab206198) was used as a negative control antibody.

In a further experiment the target is T12, Peptide 2 (human, cysteine pairing not given here).
T12 construct: Synthesized by GenScript
T12 peptide: Ac-DHCPLGPGRCCRLH-NH2
Described as above. As to the method:
as §1

The target of experiment [8] is T7, mutant hGDF15 3A. Put plainly: sandwich ELISA, HuMAB2 immobilised, mutant hGDF15, goat polyclonal detection (relative value 0.4).
The target of experiment [9] is T4, mutant hGDF15 6A. Put plainly: sandwich ELISA, HuMAB2 immobilised, mutant hGDF15, goat polyclonal detection (relative value 0.0).
Experiment [10] deals with T9, mutant hGDF15 4A. The experiment is described as above.

In the case of MAB957 (antibody), the relative binding (amount bound to 500 pg/mL hGDF15 = 100) (relative value (WT hGDF15 = 100)) came to 69.2 in the experiment with mutant hGDF15 8A [1]; 89.9 with mutant hGDF15 R13A; 88.3 with mutant hGDF15 H6A; 74.3 in the experiment with mutant hGDF15 6A [2]; 80.6 with mutant hGDF15 R13A, R16A; 101 in the experiment with mutant hGDF15 T72A. The relative binding (amount bound to 500 pg/mL hGDF15 = 100) (relative value (WT hGDF15 = 100)) with mutant hGDF15 3A [3] was 99; with mutant hGDF15 R16A, 93.9; with mutant hGDF15 4A [4], 84.1; in [5], 100. In addition, in [6], the IC50 was determined as 11.1 nM.

B1: HuMAB2 (antibody, human IgG1, kappa, V domains shown)
VH: QVQLQESGPGLVKPSETLSLTCTVSGFSINSDCYWIWIRQPPGKGLEYIGYTFYSGITYYNPSLASRTTISRDTSKNQFSLKLSSVTAADTAVYYCARDCDYAMDYWGQGTLVTVSS
VL: DIQMTQSPSSLSASVGDRVTITCRASQDISNYLNWYQQKPGKAVKLLIHYTSTLHSGVPSRFSGSGSGTDYTLTISSLQPEDFATYFCQQGNTLPWTFGQGTKLEIKR
notes: Humanized MAB2 joined to the constant region of bevacizumab; The printed copies of the L chain differ from each other; also called HuMAB2 antibody; H3delK/L7
For the molecule B1, the “relative binding (amount bound to 500 pg/mL hGDF15 = 100)” value in the experiment with mutant hGDF15 8A [1] is -0.1 relative value (WT hGDF15 = 100); in the experiment with mutant hGDF15 R13A it was 17.8 relative value (WT hGDF15 = 100); with mutant hGDF15 H6A it was 136 relative value (WT hGDF15 = 100); with mutant hGDF15 6A [2], 0 relative value (WT hGDF15 = 100); in the experiment with mutant hGDF15 T72A it was 101 relative value (WT hGDF15 = 100); with mutant hGDF15 3A [3], 0.4 relative value (WT hGDF15 = 100). Besides, the “relative binding (amount bound to 500 pg/mL hGDF15 = 100)” value is 24 relative value (WT hGDF15 = 100) with mutant hGDF15 R16A and 0 relative value (WT hGDF15 = 100) with mutant hGDF15 4A [4]. The same molecule came in with a relative binding (amount bound to 500 pg/mL hGDF15 = 100) (relative value (WT hGDF15 = 100)) with mutant hGDF15 R13A, R16A of 4.9. Also, the binding result in the experiment with mutant hGDF15 8A [7] is recorded as “no binding”; with Peptide 1, “no binding (tested: 10 µg/mL)”; with Peptide 2 it was “no binding (tested: 10 µg/mL)”; in the experiment with mutant hGDF15 3A [8] it was “no binding”; in the experiment with mutant hGDF15 6A [9] it was “no binding”; with mutant hGDF15 4A [10], “no binding”. The IC50 in experiment [6] is more than 500 nM.
